According to IntAct's records for PubMed 19103591:

B1: Anti-sigma-E factor RseA (Escherichia coli (strain K12)), P0AFX7 (parent)
chain: MQKEQLSALMDGETLDSELLNELAHNPEMQKTWESYHLIRDSMRGDTPEVLHFDISSRVMAAIEEEPVRQPATLIPEAQPAPHQWQKMPFWQKVRPWAAQLTQMGVAACVSLAVIVGVQHYNGQSETSQQPETPVFNTLPMMGKASPVSLGVPSEATANNGQQQQVQEQRRRINAMLQDYELQRRLHSEQLQFEQAQTQQAAVQVPGIQTLGTQSQ
partner: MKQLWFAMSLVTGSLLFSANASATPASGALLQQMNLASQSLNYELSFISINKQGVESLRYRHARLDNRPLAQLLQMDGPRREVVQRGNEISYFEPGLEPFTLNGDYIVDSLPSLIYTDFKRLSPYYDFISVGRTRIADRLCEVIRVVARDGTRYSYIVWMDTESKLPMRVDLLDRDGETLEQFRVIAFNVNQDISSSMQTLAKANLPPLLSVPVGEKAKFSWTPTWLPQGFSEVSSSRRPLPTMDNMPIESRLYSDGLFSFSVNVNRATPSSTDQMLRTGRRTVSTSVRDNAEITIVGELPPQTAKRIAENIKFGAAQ
B2: Sigma-E factor regulatory protein RseB (Escherichia coli (strain K12)), P0AFX9 (parent)
chain: B1 partner
partner: B1 chain

Variants of: B1
Conditions: with rseb_ecoli rseB

Variant	effect of a mutation on the interaction
Q183A	decreasing interaction
Y180A	decreasing interaction
D179A	decreasing interaction
R185A	decreasing interaction
E181A	decreasing interaction
L177A	decreasing interaction
L182A	decreasing interaction
H187A	decreasing interaction
L186A	decreasing interaction
M176A	decreasing interaction
N174A	decreasing interaction
S188A	decreasing interaction
Q178A	decreasing interaction

Variants of: B1
Conditions: with rseb_ecoli rseB
Remark: another data set of the same source

Variant	effect of a mutation on the interaction
D179C	increasing interaction strength
I173C	increasing interaction strength
L186C	increasing interaction strength

Variants of: B1
Conditions: with rseb_ecoli rseB
Remark: another data set of the same source

Variant	effect of a mutation on the interaction
I173A	decreasing interaction
E189A	decreasing interaction

Variants of: B1
Conditions: with rseb_ecoli rseB
Remark: another data set of the same source

Variant	effect of a mutation on the interaction
H187C	increasing interaction strength

Variants of: B2
Conditions: with rsea_ecoli rseA

Variant	effect of a mutation on the interaction
D174A	decreasing interaction
E181A	decreasing interaction

Variants of: B2
Conditions: with rsea_ecoli rseA
Remark: another data set of the same source

Variant	effect of a mutation on the interaction
I249A	decreasing interaction
I249A;E250A	decreasing interaction
Q182A	decreasing interaction
D245A;N246A;I249A;E250A	decreasing interaction
E250A	decreasing interaction
R238A;R239A	decreasing interaction
E178A	decreasing interaction
D176A	decreasing interaction
D171A	decreasing interaction
